Measurements reported in patent publication US20260151494A1 (ARO BIOTHERAPEUTICS, published 2026).

Experiments:
[1] = molecular target: T1, apical domain of human CD71 (human, UniProt P02786 189-383, limits assumed); assay: primary ELISA; further: test concentration or dose not given here
T1 construct: domain: apical domain; Screen 4 panned on human apical domains, the ELISA text says only 'apical domain'

[2] = molecular target: T2, human CD71 extracellular domain (human, UniProt P02786 89-760, biotinylated); assay: primary ELISA; further: test concentration or dose not given here
T2 construct: also called hCD71; CD71-ECD

[3] = molecular target: T1, apical domain of human CD71; assay: primary ELISA, RLU over HSA
[4] = molecular target: T2, human CD71 extracellular domain; assay: primary ELISA, RLU over HSA

T1 sequence (P02786 189-383 limits assumed): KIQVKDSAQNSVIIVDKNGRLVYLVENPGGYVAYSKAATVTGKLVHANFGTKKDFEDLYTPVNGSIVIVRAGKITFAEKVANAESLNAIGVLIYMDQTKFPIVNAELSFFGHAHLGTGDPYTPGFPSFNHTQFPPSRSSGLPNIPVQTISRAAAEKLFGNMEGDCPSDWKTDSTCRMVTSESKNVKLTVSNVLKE
T2 sequence (P02786 89-760): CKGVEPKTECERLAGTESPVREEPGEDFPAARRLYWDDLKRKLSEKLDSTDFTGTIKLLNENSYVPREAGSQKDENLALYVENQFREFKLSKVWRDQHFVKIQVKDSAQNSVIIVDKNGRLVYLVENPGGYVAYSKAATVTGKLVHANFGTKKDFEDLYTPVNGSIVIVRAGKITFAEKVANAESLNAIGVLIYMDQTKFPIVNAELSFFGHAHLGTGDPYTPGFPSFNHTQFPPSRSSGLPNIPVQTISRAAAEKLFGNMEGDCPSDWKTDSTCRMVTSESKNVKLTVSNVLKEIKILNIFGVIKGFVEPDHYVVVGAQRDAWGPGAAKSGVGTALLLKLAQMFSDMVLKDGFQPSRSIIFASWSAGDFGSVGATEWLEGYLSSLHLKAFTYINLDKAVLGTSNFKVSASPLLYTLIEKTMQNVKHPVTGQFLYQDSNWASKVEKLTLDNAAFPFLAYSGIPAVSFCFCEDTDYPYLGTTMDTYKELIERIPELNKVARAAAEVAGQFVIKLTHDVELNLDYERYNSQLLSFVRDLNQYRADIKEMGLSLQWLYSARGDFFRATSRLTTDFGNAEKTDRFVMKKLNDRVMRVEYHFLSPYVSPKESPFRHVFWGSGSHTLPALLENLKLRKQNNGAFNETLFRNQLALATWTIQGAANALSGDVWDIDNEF

| Binder | RLU [1] | RLU [2] | Apical domain:HSA [3] | hCD71:HSA [4] |
| --- | --- | --- | --- | --- |
| CD71-binding FN3 domain of SEQ ID NO: 463 (designed binder) MLPAPKNLVVSRVTEDSARLSWTAPDAAFDSFLILYIEQDHRGEAIVLTVPGSERSYDLTGLKPGTEYWVHITGVKGGYYSAPLSAIFTT | 5.51e+06 RLU | 5.62e+06 RLU | 89 | 91 |
| CD71-binding FN3 domain of SEQ ID NO: 471 (designed binder) MLPAPKNLVVSRVTEDSARLSWTAPDAAFDSFTIWYYESPTGGEAIVLTVPGSERSYDLTGLKPGTEYMVFIQGVKGGCFSTPLYAIFTT | 3.88e+06 RLU | 1.65e+06 RLU | 98 | 42 |
| CD71-binding FN3 domain of SEQ ID NO: 458 (designed binder) MLPAPKNLVVSRVTEDSARLSWTAPDAAFDSFLDLLPSNWDIAGEAIVLTVPGSERSYDLTGLKPGTEYHVNILGVKGGKESLPLVANFTT | 4.64e+06 RLU | 3.44e+06 RLU | 69 | 51 |
| CD71-binding FN3 domain of SEQ ID NO: 466 (designed binder) MLPAPKNLVVSRVTEDSARLSWTAPDAAFDSFYIAYAEPRPDGEAIWLLVPGSERSYDLTGLKPGTEYSVLIHGVKGGLLSSPLSADFTT | 4.3e+06 RLU | 1.08e+06 RLU | 279 | 70 |
| CD71-binding FN3 domain of SEQ ID NO: 527 (designed binder) MLPAPKNLVVSRVTEDSARLSWTAPDAAFDSFFIGYLEPQPPGEAIHLYVPGSERSYDLTGLKPGTEYNVTIQGVKGGFPSEPLIANFTT | 6.4e+06 RLU | 6.59e+06 RLU | 15 | 15 |
| CD71-binding FN3 domain of SEQ ID NO: 533 (designed binder) MLPAPKNLVVSRVTEDSARLSWTAPDAAFDSFFIGYLEPQPPGEAINLFVPGSERSYDLTGLKPGTEYNVTIQGVKGGFPSMPLSAIFTT | 5.25e+06 RLU | 3.18e+06 RLU | 241 | 146 |
| CD71-binding FN3 domain of SEQ ID NO: 529 (designed binder) MLPAPKNLVVSRVTEDSARLSWTAPDAAFDSFFIGYLEPQPPGEAIDLYVPGSERSYDLTGLKPGTEYNVTIQGVKGGFPSLPLQAHFTT | 3.24e+06 RLU | 4.13e+06 RLU | 366 | 466 |
| CD71-binding FN3 domain of SEQ ID NO: 528 (designed binder) MLPAPKNLVVSRVTEDSARLSWTAPDAAFDSFFIGYLEPQPPGEAITLLVPGSERSYDLTGLKPGTEYNVTIQGVKGGFPSIPLIAIFTT | 5.58e+06 RLU | 5.18e+06 RLU | 182 | 169 |
| CD71-binding FN3 domain of SEQ ID NO: 530 (designed binder) MLPAPKNLVVSRVTEDSARLSWTAPDAAFDSFFIGYLEPQPPGEAIDLLVPGSERSYDLTGLKPGTEYNVTIQGVKGGFPSEPLFAHFTT | 4.48e+06 RLU | 4.61e+06 RLU | 281 | 289 |
| CD71-binding FN3 domain of SEQ ID NO: 477 (designed binder) MLPAPKNLVVSRVTEDSARLSWTAPDAAFDSFEIAYFETCRTGEAIVLTVPGSERSYDLTGLKPGTEYGVSIYGVKGGAHSGPLSAIFTT | 2.4e+06 RLU | 1.88e+06 RLU | 370 | 289 |
| CD71-binding FN3 domain of SEQ ID NO: 468 (designed binder) MLPAPKNLVVSRVTEDSARLSWTAPDAAFDSFLIQYDEEGVWGEAIVLTVPGSERSYDLTGLKPGTEYSVGIGGVKGGWSSVPLSAIFTT | 3.58e+06 RLU | 1.05e+06 RLU | 24 | 71 |
| CD71-binding FN3 domain of SEQ ID NO: 455 (designed binder) MLPAPKNLVVSRVTEDSARLSWTAPDAAFDSFTISYPEEAKHGEAIVLTVPGSERSYDLTGLKPGTEYGVPINGVKGGVSSLPLSAIFTT | 4.83e+06 RLU | 1.56e+06 RLU | 171 | 55 |

The next lines start with the values.

| RLU [1] | RLU [2] | Apical domain:HSA [3] | hCD71:HSA [4] | Binder |
| --- | --- | --- | --- | --- |
| 5.85e+06 RLU | 3.79e+06 RLU | 306 | 198 | CD71-binding FN3 domain of SEQ ID NO: 540 (designed binder) MLPAPKNLVVSRVTEDSARLSWTAPDAAFDSFYIAYAEPRPDGEAIILVVPGSERSYDLTGLKPGTEYSVLIHGVKGGLLSSPLDAGFTT |
| 6.08e+06 RLU | 4.94e+06 RLU | 205 | 167 | CD71-binding FN3 domain of SEQ ID NO: 539 (designed binder) MLPAPKNLVVSRVTEDSARLSWTAPDAAFDSFFIGYLEPQPPGEAIHLFVPGSERSYDLTGLKPGTEYNVTIQGVKGGFPSDPLHAAFTT |
| 4.07e+06 RLU | 4.04e+06 RLU | 243 | 241 | CD71-binding FN3 domain of SEQ ID NO: 544 (designed binder) MLPAPKNLVVSRVTEDSARLSWTAPDAAFDSFFIGYLEPQPPGEAIALLVPGSERSYDLTGLKPGTEYNVTIQGVKGGFPSHPLSASFTT |
| 5.76e+06 RLU | 5.2e+06 RLU | 207 | 187 | CD71-binding FN3 domain of SEQ ID NO: 534 (designed binder) MLPAPKNLVVSRVTEDSARLSWTAPDAAFDSFFIGYLEPQPPGEAIHLLVPGSERSYDLTGLKPGTEYNVTIQGVKGGFPSGPLQASFTT |
| 3e+06 RLU | 2.13e+06 RLU | 237 | 169 | CD71-binding FN3 domain of SEQ ID NO: 542 (designed binder) MLPAPKNLVVSRVTEDSARLSWTAPDAAFDSFFIGYLEPQPPGEAIELFVPGSERSYDLTGLKPGTEYNVTIQGVKGGFPSMPLSAIFTT |
| 3.42e+06 RLU | 1.79e+06 RLU | 140 | 73 | CD71-binding FN3 domain of SEQ ID NO: 541 (designed binder) MLPAPKNLVVSRVTEDSARLSWTAPDAAFDSFFIGYLEPQPPGEAIDLWVPGSERSYDLTGLKPGTEYNVTIQGVKGGFPSMPLDAYFTT |
| 4.22e+06 RLU | 4.22e+06 RLU | 327 | 327 | CD71-binding FN3 domain of SEQ ID NO: 545 (designed binder) MLPAPKNLVVSRVTEDSARLSWTAPDAAFDSFFIGYLEPQPPGEAISLVVPGSERSYDLTGLKPGTEYNVTIQGVKGGFPSNPLIATFTT |
| 3.38e+06 RLU | 4.29e+06 RLU | 285 | 362 | CD71-binding FN3 domain of SEQ ID NO: 535 (designed binder) MLPAPKNLVVSRVTEDSARLSWTAPDAAFDSFFIGYLEPQPPGEAIHLQVPGSERSYDLTGLKPGTEYNVTIQGVKGGFPSDPLVAKFTT |
| 4.65e+06 RLU | 5.29e+06 RLU | 182 | 207 | CD71-binding FN3 domain of SEQ ID NO: 543 (designed binder) MLPAPKNLVVSRVTEDSARLSWTAPDAAFDSFFIGYLEPQPPGEAISLYVPGSERSYDLTGLKPGTEYNVTIQGVKGGFPSIPLVAVFTT |
| 4.93e+06 RLU | 5.57e+06 RLU | 164 | 185 | CD71-binding FN3 domain of SEQ ID NO: 538 (designed binder) MLPAPKNLVVSRVTEDSARLSWTAPDAAFDSFFIGYLEPQPPGEAIDLYVPGSERSYDLTGLKPGTEYNVTIQGVKGGFPSHPLVAVFTT |
